# Laboratory results published in PMC3362647.
# Test system: GST-p180-Lys (p180 lysine-rich region)
# Test: EMSA
# Details: PBS with 10 ug/ml denatured yeast tRNA, room temperature, 20 min; native 10% PAGE (19:1) in TBE; pH not stated
substance,measurement,value
human insulin SSCR RNA,Kd,0.8 µM
